Experiments:
[1] = biological target: Mouse LRP-8 expressed on HEK293 cells (mouse) (UniProt Q924X6); assay: cell-based binding on MOUSE LRP8-HEK293, supernatant 1:125
[2] = biological target: Mouse LRP-8 expressed on HEK293 cells (mouse) (UniProt Q924X6); assay: cell-based binding on MOUSE LRP8-HEK293, supernatant 1:25
[3] = biological target: Mouse LRP-8 expressed on HEK293 cells (mouse) (UniProt Q924X6); assay: cell-based binding on MOUSE LRP8-HEK293, supernatant 1:5
[4] = biological target: Mouse LRP-8 expressed on HEK293 cells (mouse) (UniProt Q924X6); assay: FACS, mouse LRP8 cells
[5] = biological target: Mouse LRP-8 expressed on HEK293 cells (mouse) (UniProt Q924X6); assay: cell-based binding assay, mLRP8
[6] = biological target: Mouse LRP-8 expressed on HEK293 cells (mouse) (UniProt Q924X6); assay: cell-based ECL-MSD, 10 ug/ml Ab, mouse-LRP-8-HEK293
[7] = biological target: Mouse LRP-8 expressed on HEK293 cells (mouse) (UniProt Q924X6); assay: cell-based MSD binding assay on 293H-mLRP8 cells; curve label LRP8-11H1
[8] = biological target: Mouse LRP-8 expressed on HEK293 cells (mouse) (UniProt Q924X6); assay: mLRP8 cell binding
[9] = biological target: Mouse LRP-8 expressed on HEK293 cells (mouse) (UniProt Q924X6); assay: fit of the FACS titration of FIG. 12A on mLRP8-transfected HEK293 cells; the column head prints EC50 only, nM is from legend paragraph 78 and the axis of FIG. 12A

B1: anti-LRP-8 BGK.6E3.F4 [r/m IgG2a/K] (antibody, V domains shown)
VH: EVQLVESGGGLVQPGKSLKLSCAASGFTFSDYNMAWVRQAPKKGLEWVATIMYDGSRTFYRDSVKGRYTFSRDNAKSTLYLQMDSLRSEDTATYYCATGRNWFAYWGQGTLVTVSS
VL: DIIMTQSPSSLAVSAGETVTINCKSSQSLLSSGKQKNYLAWYQQKPGQSPKLLIYLASTRESGVPDRFIGSGSGTDFTLTISSMQAEDLAIYYCQQHYDTPLTFGSGTKLEIK
[1]
  fold over isotype control: 0.21 fold
[2]
  fold over isotype control: 0.44 fold
[3]
  fold over isotype control: 0.72 fold

B2: anti-LRP-8 antibody CL-135325 (antibody, V domains shown)
VH: EVQLVQSGGGLVQPGGSLRLSCAASGFTFSIYAMSWVRQAPGKGLEWVSVISCSAGSTYYADSVKGRFTISRDNSKNTLYLQMNSLRAEDTAVYYCARHSVHEEFPFDVWGQGTLVTVSS
VL: DIQMTQSPSSLSASVGDRVTITCRASQSIGSYLNWYQQKPGKAPKLLIYAASSLQSGVPSRFSGSGSGTDFTLTISSLQPEDFATYYCQQSYIPPLTFGGGTKVEIK
[4]
  FACS (ratio +/-): 21.2

B3: anti-LRP-8 antibody CL-135359 (antibody, V domains shown)
VH: EVQLVQSGGGLVQPGGSLRLSCAASGFTFSSYAMSWVRQAPGKGLEWVSVISCSGGTTYYADSVKGRFTISRDNSKNTLYLQMNSLRAEDTAVYYCARNGGQFDLWGQGTLVTVSS
VL: DIQMTQSPSSLSASVGDRVTITCRASQGICTYLNWYQQKPGKAPKLLIYAASSLQSGVPSRFSGSGSGTDFTLTISSLQPEDFATYYCQQSYNPPLTFGGGTKVEIK
[4]
  FACS (ratio +/-): 7.3

B4: anti-LRP-8 BGK-7F7 chimeric antibody (CL-105960) (antibody, V domains shown)
VH: QVTLKESGPGILQPSQTLSLTCTFSGFSLSTYGLGVGWIRQPSGKGLEWLANIWWDDAKYYNPSLKNRLTISKDTSNNQAFLKIPNVDTADTARYYCARTTKPYYFDYWGQGVMVTVSS
VL: HFVLAQPNSVSTNLGSTVKLSCKRSTANIGSNYVNWYQQHEGRSPTTLIYRDDRRPDGVPDRFSGSIDRSSNSALLTINNVQTEDEADYFCQSYSSGINIFGGGTKLTVL
[5]
  EC50: 3.92 nM

B5: anti-LRP-8 BGK-7A11 chimeric antibody (CL-105959) (antibody, V domains shown)
VH: QVTLKESGPGILQPSQTLSLTCTFSGFSLSTYGMGVGWIRQPAGTGLEWLANIWWDDDKYYNPSLKNRLTISKDTSNNQVFLKITNVDTADTATYYCARTTKPYYFDYWGQGVMVTVSS
VL: HFVLAQPNSVSTNLGSTVKLSCKRSTGNSGSNYVNWYQQYEGRSPTTMIYRDDKRPDGVPDRFSGSIDRSSNSALLTINNVQTEDEADYFCQSYSSGINIFGGGTKLTVL
[5]
  EC50: 27.6 nM

B6: anti-LRP-8 BGK-6B5-2 chimeric antibody (CL-105969) (antibody, V domains shown)
VH: QVSLQESGPGILQPSQTLSLTCTFSGFSLSTFGMGVGWIRQPSGKGLEWLANIWWDDDKYYNPSLKNRLTISKDTSNNQAFLKITNVDTADTATYYCARTAKPYYFDYWGHGVMVTVSS
VL: HFVLAQPNSVSTNLGNTVKLSCKRSTGNIGSNYVNWYQQHEGRSPTTLIYRDDKRPDGVPDRFSGSFDRSSNSALLTINNVQTEDEADYFCQSYNSGINFFGGGTKLTVL
[5]
  EC50: 41.8 nM

B7: anti-LRP-8 BGK.2C8.E6.D3 [r/m IgG2a/K] (antibody, V domains shown)
VH: QVTLKESGPGILQPSQTLSLTCTFSGFSLNTYGMGVGWVRQPSGKGLEWLANIWWDDDKFYNPSLKNRLTVSKDTSNNQAFLRITNGDTADTATYFCARILGEDIGGALDAWGQGTSVTVSS
VL: DTVLTQSPALAVSPGERVSISCRASEGVNSYMHWYQQNPGQQSKLLIYRTSNLASGVPARFGGSGSGTDFTLTIDPVEADDTATYFCQQSWNDPPTFGGGTKLELK
[1]
  fold over isotype control: 0.43 fold
[2]
  fold over isotype control: 0.45 fold
[3]
  fold over isotype control: 0.19 fold

B8: anti-LRP-8 BGK.5D10.E4 [r/m IgG2a/K] (antibody, V domains shown)
VH: QVQLRETGPDLVQPTQTLSLTCTVSGFSLTNYPVQWVRQPPGSGLEWLGIMWPSGAADFNPALKSRLSISRDTSKSQFFLRMDNLQTDDTAIYFCARGRGYSSPYAMDAWGQGTSVTVSS
VL: DIQMTQSPASLSASLGETVSIECLASEDIYNNLAWYQQKPGKSPHLLIHFTSNLQDGVPSRFSGSGSGTQYSLKINSLESEDGATYFCLQDSEYPLTFGSGTKLEIK
[1]
  fold over isotype control: 0.16 fold
[2]
  fold over isotype control: 0.16 fold
[3]
  fold over isotype control: 0.04 fold

B9: anti-LRP-8 BGK-9D10-2 antibody (CL-105967) (antibody, V domains shown)
VH: EVQLVESGGGLVQSGRSLKLSCAASGFTFSNYYMAWVRQAPKKGLEWVATITTSGSRSFYPDSVKGRFTISRDNAKSSLYLQINSLKSEDTATYYCARRGPLGYFDHWGRGVMVTVSS
VL: DIQMTQSPPSLPASLGDKVTITCQASQNINKYIAWYQQKPGKAPRLLIRFTSTLESDTPSRFSGSGSGRDYSFSISNVESEDFASYYCLHYDNLPPWTFGGGTKLELK
[5]
  EC50: 0.43 nM

B10: anti-LRP-8 antibody ab58216 (mFc) (antibody, V domains shown)
VH: EVHLQQSGPEVVKPGASVKISCKASGYIISGYFLNWVKQSHGKSLEWVGRINPYSGDTFFNQKFKGKATLTVDKSSNTAHMELRSLTSEDSAVFYCAREDIGRFAYWGQGTLVTVSA
VL: DVLMTQTPLSLPVSLGDQASISCRSSQTIVHSNGNTYLEWYLQKPGQSPKLLIYKVSNRFSGVPDRFSGSGSGTDFTLKISRVEAEDLGVYYCFQGSHAPPTFGGGTKLEIK
[6]
  fold over mIgG control: 19.2 fold

B11: anti-LRP-8 ML201-2B4.2B1.2H10 murine antibody (muFc) (antibody, V domains shown)
VH: DVKLVASGGGLVKPGGSLKLSCAASGFTLSRYAMSWVRQTPEKRLEWVAYIRNGGDYIYYADTVKGRFTISRDNARNTLYLQMSSLKSEDTAMYYCTREGSYYNFDYWGQGTTLTVSS
VL: DVLMTQTPLSLPVSLGDQASISCRSSQSIVHSNGNTYLEWYLQKPGQSPNLLIFKVSNRFSGVPDRFIGSGSGTDFTLKISRVEAEDLGVYYCFQGSHVPWTFGGGTKLEIK
[6]
  fold over mIgG control: 1.2 fold

B12: humanized ML199-11H1.5B2VH.1/VL.1a (antibody, V domains shown)
VH: EVQLVESGGGLVKPGGSLRLSCAASRFTFSNYGMSWVRQAPGKGLEWVSTISSGGRYTYYPDSVKGRFTISRDNAKNSLYLQMNSLRAEDTAVYYCARDYLYAMDYWGQGTTVTVSS
VL: DVVMTQSPLSLPVTPGEPASISCRSSQSLVYSNGNTYLHWYLQKPGQSPQVLMYKVSNRFSGVPDRFSGSGSGTDFTLKISRVEAEDVGVYFCSQSTHVPLTFGQGTKLEIK
[7]
  EC50: 0.3 nM
[8]
  EC50: 13.4 nM

B13: anti-LRP-8 ML199-11H1.5B2 murine antibody (muFc) (antibody, V domains shown)
VH: EVQLVESGGDLVKPGGSLKLSCAASRFTFSNYGMSWVRQTPDKRLEWVATISSGGRYTYYPDSVKGRFTISRDNAKNTLYLQMSSLRSEDTAMYYCARDYLYAMDYWGQGTSVTVSS
VL: DVVMTQTPLSLPVSLGDQASISCRSSQSLVYSNGNTYLHWYLQKPGQSPKVLMYKVSNRFSGVSDRFSGSGSGTDFTLKISRVEAEDLGVYFCSQSTHVPLTFGAGTKLELK
[9]
  EC50: 8.36 nM
[6]
  fold over mIgG control: 23.1 fold

B14: humanized ML199-11H1.5B2VH.1/VL.1 (antibody, V domains shown)
VH: EVQLVESGGGLVKPGGSLRLSCAASRFTFSNYGMSWVRQAPGKGLEWVSTISSGGRYTYYPDSVKGRFTISRDNAKNSLYLQMNSLRAEDTAVYYCARDYLYAMDYWGQGTTVTVSS
VL: DIVMTQSPLSLPVTPGEPASISCRSSQSLVYSNGNTYLHWYLQKPGQSPQLLIYKVSNRFSGVPDRFSGSGSGTDFTLKISRVEAEDVGVYYCSQSTHVPLTFGQGTKLEIK
[8]
  EC50: 22.4 nM

B15: anti-LRP-8 ML201-8F3.3D7 murine antibody (muFc) (antibody, V domains shown)
VH: EVQLVESGGDLVKPGGSLKLSCAASRFTFSNFGMSWVRQTPDKRLEWVATISSGGRYTYYPDSVKGRFTISRDNAKNTLYLQMSSLRSEDTAMYYCARDYLYAMDYWGQGTSVTVSS
VL: DVVMTQTPLSLPVSLGDQASISCRSSQSLVYSNGNTYLHWYLQKPGQSPKVLMYKVSNRFSGVSDRFSGSGSGTDFTLKISRVEAEDLGVYFCSQSTHVPLTFGAGTKLELK
[6]
  fold over mIgG control: 21.1 fold

B16: humanized ML199-11H1.5B2VH.1a/VL.1b (antibody, V domains shown)
VH: EVQLVESGGGLVKPGGSLRLSCAASRFTFSNYGMSWVRQAPGKGLEWVATISSGGRYTYYPDSVKGRFTISRDNAKNSLYLQMNSLRAEDTAVYYCARDYLYAMDYWGQGTTVTVSS
VL: DVVMTQSPLSLPVTPGEPASISCRSSQSLVYSNGNTYLHWYLQKPGQSPQVLIYKVSNRFSGVPDRFSGSGSGTDFTLKISRVEAEDVGVYYCSQSTHVPLTFGQGTKLEIK
[8]
  EC50: 19.6 nM

B17: humanized ML199-11H1.5B2VH.1a/VL.1a (antibody, V domains shown)
VH: EVQLVESGGGLVKPGGSLRLSCAASRFTFSNYGMSWVRQAPGKGLEWVATISSGGRYTYYPDSVKGRFTISRDNAKNSLYLQMNSLRAEDTAVYYCARDYLYAMDYWGQGTTVTVSS
VL: DVVMTQSPLSLPVTPGEPASISCRSSQSLVYSNGNTYLHWYLQKPGQSPQVLMYKVSNRFSGVPDRFSGSGSGTDFTLKISRVEAEDVGVYFCSQSTHVPLTFGQGTKLEIK
[8]
  EC50: 41.8 nM

B18: humanized ML199-11H1.5B2VH.1a/VL.1 (antibody, V domains shown)
VH: EVQLVESGGGLVKPGGSLRLSCAASRFTFSNYGMSWVRQAPGKGLEWVATISSGGRYTYYPDSVKGRFTISRDNAKNSLYLQMNSLRAEDTAVYYCARDYLYAMDYWGQGTTVTVSS
VL: DIVMTQSPLSLPVTPGEPASISCRSSQSLVYSNGNTYLHWYLQKPGQSPQLLIYKVSNRFSGVPDRFSGSGSGTDFTLKISRVEAEDVGVYYCSQSTHVPLTFGQGTKLEIK
[8]
  EC50: 6.83 nM

B19: humanized ML199-11H1.5B2VH.1/VL.1b (antibody, V domains shown)
VH: EVQLVESGGGLVKPGGSLRLSCAASRFTFSNYGMSWVRQAPGKGLEWVSTISSGGRYTYYPDSVKGRFTISRDNAKNSLYLQMNSLRAEDTAVYYCARDYLYAMDYWGQGTTVTVSS
VL: DVVMTQSPLSLPVTPGEPASISCRSSQSLVYSNGNTYLHWYLQKPGQSPQVLIYKVSNRFSGVPDRFSGSGSGTDFTLKISRVEAEDVGVYYCSQSTHVPLTFGQGTKLEIK
[8]
  EC50: 7.92 nM

— patent publication US20160200813A1
